The target of one data set is rA3GR8 (Macaca mulatta (rhesus macaque), UniProt M1GSK9 1-138+=AEAG+147-383, internal_change). Put plainly: EMSA; EMSA: 10 nM 6-FAM RNA, 50 mM HEPES pH 7.5, 250 mM NaCl, 1 mM DTT, 0.4 U/ul RNase inhibitor, 10% glycerol, on ice 10 min, 8% native PAGE at 4 C. The settings on record: protein: recombinant; tags: 6xHis-SUMO removed by PreScission protease; label: 6-FAM; single strand. On the technique in general: Mobility shift assays separate free from complexed probe on a gel.

The target of data set [1] is T1, rA3GR8/E259A (Macaca mulatta (rhesus macaque), UniProt M1GSK9 1-138+=AEAG+147-383, E259A;internal_change). Put plainly: X-ray crystallography; 1.83 A; 1:1; EMSA: 10 nM 6-FAM RNA, 50 mM HEPES pH 7.5, 250 mM NaCl, 1 mM DTT, 0.4 U/ul RNase inhibitor, 10% glycerol, on ice 10 min, 8% native PAGE at 4 C. The settings on record: protein: recombinant; tags: 6xHis-SUMO removed by PreScission protease; single strand.

Another data set deals with GST-NCp7 (HIV-1, UniProt P04591 378-432). The data set can be described thus: EMSA; best binder; EMSA: 10 nM 6-FAM RNA, 50 mM HEPES pH 7.5, 250 mM NaCl, 1 mM DTT, 0.4 U/ul RNase inhibitor, 10% glycerol, on ice 10 min, 8% native PAGE at 4 C. The settings on record: protein: recombinant; tags: N-terminal GST; label: 6-FAM; single strand.
The target of data set [2] is T1, rA3GR8/E259A. Put plainly: X-ray crystallography; 1:1; EMSA: 10 nM 6-FAM RNA, 50 mM HEPES pH 7.5, 250 mM NaCl, 1 mM DTT, 0.4 U/ul RNase inhibitor, 10% glycerol, on ice 10 min, 8% native PAGE at 4 C. The settings on record: protein: recombinant; tags: 6xHis-SUMO removed by PreScission protease; single strand.

Chain of rA3GR8 (M1GSK9 entry or part of it): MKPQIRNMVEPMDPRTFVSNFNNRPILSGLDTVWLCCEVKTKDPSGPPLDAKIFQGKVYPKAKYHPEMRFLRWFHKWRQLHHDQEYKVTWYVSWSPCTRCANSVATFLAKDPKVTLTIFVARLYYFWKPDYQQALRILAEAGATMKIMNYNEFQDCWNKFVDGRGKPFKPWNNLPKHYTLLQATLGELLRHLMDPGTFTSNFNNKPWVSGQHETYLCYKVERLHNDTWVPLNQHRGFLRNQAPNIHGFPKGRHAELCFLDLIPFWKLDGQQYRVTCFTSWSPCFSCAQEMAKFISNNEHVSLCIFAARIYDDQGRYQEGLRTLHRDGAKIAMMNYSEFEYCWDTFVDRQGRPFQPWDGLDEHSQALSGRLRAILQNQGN
T1 sequence (M1GSK9 entry or part of it E259A/| E259A E259A): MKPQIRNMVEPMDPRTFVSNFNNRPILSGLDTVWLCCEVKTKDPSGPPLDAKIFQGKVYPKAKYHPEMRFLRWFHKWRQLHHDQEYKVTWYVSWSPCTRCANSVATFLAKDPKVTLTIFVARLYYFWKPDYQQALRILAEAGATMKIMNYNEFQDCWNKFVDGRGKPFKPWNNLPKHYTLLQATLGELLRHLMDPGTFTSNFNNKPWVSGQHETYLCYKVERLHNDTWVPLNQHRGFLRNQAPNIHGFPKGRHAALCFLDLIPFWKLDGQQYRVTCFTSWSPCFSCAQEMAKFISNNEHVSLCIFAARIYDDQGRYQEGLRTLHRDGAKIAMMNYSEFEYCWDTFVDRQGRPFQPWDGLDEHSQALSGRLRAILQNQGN

By Kd is commonly meant a measure of binding affinity in units of concentration. For UUUUGAUUUU (ssRNA) [RNA3-GA], the Kd with rA3GR8 is 47 nM.

For UUUUAAUUUU (ssRNA) [RNA3-AA], the Kd in the data set with rA3GR8 was found to be 10 nM.

As for UUUUGAUUUU (ssRNA) [RNA3-GAxtal], in the data set with rA3GR8/E259A [1], the binding result was “binds”.

In the case of UUUUGGUUUU (ssRNA) [RNA3-GG], the binding result with GST-NCp7 is given as “binds”.

Turning to UUUUAAUUUU (ssRNA) [RNA3-AAxtal], the binding result with rA3GR8/E259A [2] is given as “binds”.

On to UUUUAGUUUU (ssRNA) [RNA3-AG], for which the Kd with rA3GR8 was determined as 200 nM.
